± gives the uncertainty stated by the source.
Test: self-splicing fitness, log relative to wild type (ln ratio); higher = more splicing; Tetrahymena group I intron in knt gene, E. coli kanamycin selection, DiMSum; sequences stand for … in CUCUCU…GGAGGGAAAAGUUAUCAGGCAUGCACCUGGUAGCUAGUCUUUAAACCAAUAGAUUGCAUCGGUUUAAAAGGCAAGACCGUCAAAUUGCGGGAAAGGGGUCAACAGCCGUUCAGUACCAAGUCUCAGGGGAAACUUUGAGAUGGCCUUGCAAAGGGUAUGGUAAUAAGCUGACGGACAUGGUCCUAACCACGCAGCCAAGUCCUAAGUCAACAGAUCUUCUGUUGAUAUGGAUGCAGUUCACAGACUAAAUGUCGGUCGGGGAAGAUGUAUUCUUCUCAUAAGAUAUAGUCGGACCUCUCCUUAAUGGGAGCUAGCGGAUGAAGUGAUGCAACACUGGAGCCGCUGGGAACUAAUUUGUAUGCGAAAGUAUAUUGAUUAGUUUUGGAGUACUCGUGGUCG
Procedure, shortened: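 Colonies from six replicate transformations of E. coli BL21(DE3) were pooled and amplicon-sequenced on an Illumina HiSeq 2500. The library placed an intron with all eight P1ex-region nucleotides randomised inside the knt kanamycin-resistance gene on pET-22b(+), and cells grew overnight at 37°C or 30°C on LB agar with or without 25 μg/mL kanamycin (plus 100 μg/mL carbenicillin, 50 μM IPTG, 0.2% rhamnose). Fitness is the DiMSum error-weighted combination of wild-type-normalised replicate fold changes, kanamycin versus none.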

Sequence | self-splicing fitness (ln) (30 °C) | self-splicing fitness (ln) (37 °C)
ACACAGCAAUAUUACGAUUG | -2.22 ± 0.084 | -0.711 ± 0.09
ACACAGCAAUAUUACGCAAA | -3.2 ± 0.11 | -1.85 ± 0.092
ACACAGCAAUAUUACGCCAA | -2.36 ± 0.11 | -2.54 ± 0.14
ACACAGCAAUAUUACGCCAU | -3.18 ± 0.21 | -1.85 ± 0.15
ACACAGCAAUAUUACGCCGG | -1.36 ± 0.09 | -0.466 ± 0.11
ACACAGCAAUAUUACGCGCA | -0.103 ± 0.064 | 0.225 ± 0.079
ACACAGCAAUAUUACGCUCC | -1.47 ± 0.078 | -0.566 ± 0.1
ACACAGCAAUAUUACGCUUU | -2.75 ± 0.14 | -1.51 ± 0.098
ACACAGCAAUAUUACGGCAC | -1.6 ± 0.066 | -0.725 ± 0.084
ACACAGCAAUAUUACGGGUC | -4.34 ± 0.21 | -2.17 ± 0.13
ACACAGCAAUAUUACGUAAG | -2.06 ± 0.062 | -0.736 ± 0.069
ACACAGCAAUAUUACGUAGG | -2.48 ± 0.087 | -1.64 ± 0.09
ACACAGCAAUAUUACGUGUU | -3.16 ± 0.073 | -3.62 ± 0.16
ACACAGCAAUAUUACGUUAG | -3.46 ± 0.094 | -2.44 ± 0.1
ACACAGCAAUAUUACGUUGG | -3 ± 0.089 | -1.2 ± 0.081
ACACAGCAAUAUUACGUUGU | -2.31 ± 0.09 | -2.6 ± 0.14
ACAGAGCAAUAUUACGAACC |  | -1.67 ± 0.49
ACAGAGCAAUAUUACGAAUA | -3.45 ± 0.32 | -2.2 ± 0.35
ACAGAGCAAUAUUACGACAG | -3.72 ± 0.31 | -1.95 ± 0.2
ACAGAGCAAUAUUACGAUUA | -3.25 ± 0.23 | -2.38 ± 0.26
ACAGAGCAAUAUUACGCAUG | -2.9 ± 0.12 | -1.95 ± 0.13
ACAGAGCAAUAUUACGCCGG | -2.81 ± 0.25 | -2.4 ± 0.33
ACAGAGCAAUAUUACGCUCA | -1.29 ± 0.2 | -1.26 ± 0.18
ACAGAGCAAUAUUACGGCAC |  | -2.62 ± 0.44

Sequence | self-splicing fitness (ln) (30 °C) | self-splicing fitness (ln) (37 °C)
ACAGAGCAAUAUUACGGCGG | -3.41 ± 0.26 | -1.98 ± 0.24
ACAGAGCAAUAUUACGGGUU | -2.43 ± 0.1 | -3.08 ± 0.18
ACAGAGCAAUAUUACGGUAC | -3.57 ± 0.2 | -3.02 ± 0.25
ACAGAGCAAUAUUACGUCGA | -3.1 ± 0.3 | -2.73 ± 0.34
ACAGAGCAAUAUUACGUGAC | -3.76 ± 0.24 | -1.6 ± 0.17
ACAGAGCAAUAUUACGUGUG | -2.65 ± 0.12 | -2.99 ± 0.14
ACAGAGCAAUAUUACGUUAA | -3.15 ± 0.15 | -2.21 ± 0.21
ACAGAGCAAUAUUACGUUAC | -3 ± 0.15 | -2.96 ± 0.25
ACAUAGCAAUAUUACGAACG | -1.2 ± 0.17 | -0.114 ± 0.28
ACAUAGCAAUAUUACGAAUA | -2.06 ± 0.28 | -0.539 ± 0.2
ACAUAGCAAUAUUACGACCA | -0.589 ± 0.12 | 0.121 ± 0.14
ACAUAGCAAUAUUACGACGC | -0.172 ± 0.071 | 0.801 ± 0.1
ACAUAGCAAUAUUACGACUU | 0.0662 ± 0.074 | -0.163 ± 0.087
ACAUAGCAAUAUUACGCAAG | -1.9 ± 0.12 | -1.25 ± 0.2
ACAUAGCAAUAUUACGCCCU | -0.862 ± 0.083 | -0.134 ± 0.1
ACAUAGCAAUAUUACGCCGA | -1.38 ± 0.19 | -0.864 ± 0.18
ACAUAGCAAUAUUACGCGGA | -2.07 ± 0.14 | -0.505 ± 0.1
ACAUAGCAAUAUUACGCUAA | -2.26 ± 0.23 | -0.742 ± 0.34
ACAUAGCAAUAUUACGCUCU | -0.768 ± 0.084 | -0.2 ± 0.12
ACAUAGCAAUAUUACGGCUU | -0.628 ± 0.09 | 0.133 ± 0.11
ACAUAGCAAUAUUACGGGGU | -3.67 ± 0.17 | -1.81 ± 0.14
ACAUAGCAAUAUUACGGUAA | -2.88 ± 0.15 | -1.52 ± 0.12
ACAUAGCAAUAUUACGGUUG | -2.29 ± 0.079 | -1.95 ± 0.1
ACAUAGCAAUAUUACGUAAG | -1.94 ± 0.085 | -1.6 ± 0.12

Sequence | self-splicing fitness (ln) (30 °C) | self-splicing fitness (ln) (37 °C)
ACAUAGCAAUAUUACGUCAA | -3.99 ± 0.21 | -1.63 ± 0.11
ACAUAGCAAUAUUACGUCGG | -2.1 ± 0.099 | -1.16 ± 0.1
ACAUAGCAAUAUUACGUCUC |  | -2.01 ± 0.25
ACAUAGCAAUAUUACGUUCC | -2.65 ± 0.23 | -2.1 ± 0.34
ACAUAGCAAUAUUACGUUGU | -3.63 ± 0.15 | -2.78 ± 0.2
ACAUAGCAAUAUUACGUUUC | -3.55 ± 0.23 | -2.84 ± 0.3
ACAUAGCAAUAUUACGUUUG | -2.83 ± 0.12 | -2.51 ± 0.15
ACCAAGCAAUAUUACGAAUG | -3.18 ± 0.1 | -1.78 ± 0.1
ACCAAGCAAUAUUACGACAC | -1.29 ± 0.093 | -1.3 ± 0.13
ACCAAGCAAUAUUACGAUGA | -1.97 ± 0.1 | -1.36 ± 0.11
ACCAAGCAAUAUUACGCAGG | -3.41 ± 0.13 | -2.59 ± 0.13
ACCAAGCAAUAUUACGCCCU | -0.139 ± 0.091 | 0.663 ± 0.14
ACCAAGCAAUAUUACGCCUC | -2.34 ± 0.22 | -0.371 ± 0.18
ACCAAGCAAUAUUACGCUCA | -0.49 ± 0.098 | -0.055 ± 0.11
ACCAAGCAAUAUUACGGCCG | -0.944 ± 0.086 | -0.259 ± 0.11
ACCAAGCAAUAUUACGGCGA | -0.805 ± 0.064 | -0.254 ± 0.072
ACCAAGCAAUAUUACGGCGG | -1.04 ± 0.083 | -0.733 ± 0.11
ACCAAGCAAUAUUACGGGAG | -3.22 ± 0.13 | -2.66 ± 0.14
ACCAAGCAAUAUUACGGGCG | -0.824 ± 0.048 | 0.12 ± 0.068
ACCAAGCAAUAUUACGGGGG | -2.15 ± 0.096 | -2.29 ± 0.14
ACCAAGCAAUAUUACGGUGG | -4.89 ± 0.21 | -2.53 ± 0.14
ACCAAGCAAUAUUACGGUUA | -1.63 ± 0.1 | -1.68 ± 0.096
ACCAAGCAAUAUUACGGUUC | -3.36 ± 0.15 | -3.46 ± 0.25
ACCAAGCAAUAUUACGGUUU | -3.14 ± 0.11 | -2.08 ± 0.1

Sequence | self-splicing fitness (ln) (30 °C) | self-splicing fitness (ln) (37 °C)
ACCAAGCAAUAUUACGUAUC | -3.4 ± 0.1 | -2.34 ± 0.11
ACCAAGCAAUAUUACGUAUU | -3.77 ± 0.14 | -2.07 ± 0.12
ACCAAGCAAUAUUACGUUAA | -3.17 ± 0.18 | -2.46 ± 0.17
ACCAAGCAAUAUUACGUUUG | -4.33 ± 0.16 | -2.43 ± 0.14
ACCCAGCAAUAUUACGAAAA | -1.66 ± 0.097 | -1.83 ± 0.13
ACCCAGCAAUAUUACGACAU | -0.995 ± 0.011 | -0.241 ± 0.032
ACCCAGCAAUAUUACGAGCG | -2.3 ± 0.074 | -0.837 ± 0.091
ACCCAGCAAUAUUACGAGUG | -1.74 ± 0.054 | -0.755 ± 0.058
ACCCAGCAAUAUUACGAUAG | -3.3 ± 0.1 | -1.78 ± 0.1
ACCCAGCAAUAUUACGAUGC | -1.31 ± 0.06 | 0.13 ± 0.073
ACCCAGCAAUAUUACGAUUA | -1.61 ± 0.09 | -1.41 ± 0.082
ACCCAGCAAUAUUACGCCAC | -4.62 ± 0.42 | -1.82 ± 0.31
ACCCAGCAAUAUUACGCCCC | -1.3 ± 0.12 | -0.142 ± 0.14
ACCCAGCAAUAUUACGGGGC | -4.5 ± 0.19 | -2.73 ± 0.14
ACCCAGCAAUAUUACGGGUC | -1.89 ± 0.085 | -2.74 ± 0.19
ACCCAGCAAUAUUACGUCAC | -3.29 ± 0.14 | -2.18 ± 0.15
ACCCAGCAAUAUUACGUCCU | -0.73 ± 0.075 | -0.51 ± 0.089
ACCCAGCAAUAUUACGUCUU | -1.25 ± 0.063 | -0.446 ± 0.075
ACCCAGCAAUAUUACGUGAA | -0.191 ± 0.041 | 0.202 ± 0.063
ACCCAGCAAUAUUACGUGUG | -2.63 ± 0.062 | -1.07 ± 0.064
ACCGAGCAAUAUUACGAAAG | -3.42 ± 0.37 | -1.68 ± 0.17
ACCGAGCAAUAUUACGAACG | -2.36 ± 0.2 | -0.527 ± 0.22
ACCGAGCAAUAUUACGAAUU | -4.54 ± 0.39 | -1.89 ± 0.21
ACCGAGCAAUAUUACGACCA |  | -0.694 ± 0.33

Source: the supplement of paper PMC7877785
